Laboratory results from the RNAGym collection of RNA variant scans (doi:10.1073/pnas.2313332121).
Fewer inactive variants are shown than the library holds.

B1: TPR 5TU (parent)
chain: GGAUCUUCUCGAUCUAACAAAAAAGACAAAUCUGCCACAAAGCUUGAGAGCAUCUUCGGAUGCAGAGGCGGCAGCCUUCGGUGGCGCGAUAGCGCCAACGUUCUCAACUAUGACACGCAAAACGCGUGCUCCGUUGAAUGGAGUUUAUCAUG

Variants of: B1
Experiment: polymerase ribozyme fitness, log enrichment relative to wild type (log ratio); higher = more active; in vitro selection for triplet polymerase activity
Summary of the method: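 Genotype fitness is the logarithm of its enrichment divided by wild-type enrichment, using inverse-variance-weighted averages of replicates. That logarithm is base 2. Enrichment was measured by Illumina sequencing of input and output libraries from one triplicate in vitro selection round, with frozen incubation at −7 °C, on PCR-built, transcribed mutant libraries of each subunit of a heterodimeric triplet polymerase ribozyme, retaining genotypes with ≥10 input reads and ≥1 read per output.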

Variant | polymerase ribozyme fitness (log ratio)
C51A C57G G68C A73C C76G G86U G100C A120G A122C U134A | ≤ -4.2
A52G A73U G84A | -2.15
A52C G94C A106G | -1.86
A52C C85A | -3.22
G50U U56A C114U | -2.18
G50U U104G G143U | -3.47
A52C U77G C79U C87A C95U | ≤ -4.2
C51G A73U | -3.44
C51G C79G C96G | ≤ -4.2
C51A C85A U134C | -2.88
A52C A97U | -1.59
A52C C54A A89G G117A | -3.55
A52C U53A | -3.29
C51U U61A G86C | -4.06
C51U C54G C85U U101G A137G U144G | ≤ -4.2
A52G A107U | -3.56
A52G A107C | -3.09
A52G A60C | -1.96
C51G C125U G141U | -3.54
A52C G83U | -2.01
C51A C57U U146G | -1.67
C51U A52U G74C A113C C131A | ≤ -4.2
C51U U56A | -0.892
G50U U55G C75A A97G A137U U151A | ≤ -4.2

Variant | polymerase ribozyme fitness (log ratio)
A52C U55A G74U G88U G92U C105G A107G | ≤ -4.2
A52C A73G C85A | -3.88
C51G A52G U102A | -3.01
C51U C93G U130C U145A | -3.53
A52C U148A | -4.18
A52C U55A G62C G84A C105U C114U G141A C149A | ≤ -4.2
C51A U55G A60G C93U | -2.7
A52C C116G | -1.21
C51U G86U | -1.45
C51U G86A | -2.13
C51U A52G | -1.18
C51U U56A G71C G84A G140A A142U | ≤ -4.2
A52C U55G G58C G59A A66C | ≤ -4.2
C51G A64C C69U G80A G86A C96U C114A | ≤ -4.2
C51A U134G U144A | -4.17
C51A G86A C118A | -3.43
A52C A98U | -0.983
C51G G80U G94U | ≤ -4.2
C51G C57U G67C C87G A91G | ≤ -4.2
C51U G94C | -0.484
C51U G94A | -1.11
C51A G86C A89U A113U G126A G141U | ≤ -4.2
C51U A89G C99U A150G | -3.67
C51G A73G C79G C87G G140C U144A | ≤ -4.2

Variant | polymerase ribozyme fitness (log ratio)
C51A G74A C85A C114A | ≤ -4.2
A52C G58A C93A C118U | -3.55
C51A G58C | -2.22
C51U C95U U104G U144A | -2.33
C51G U56A G117U | -2.86
G50U U78C U139G | -3.06
C51U C75U G88A C93U G94A G136C | ≤ -4.2
G50U G92A | -2.93
G50U U144G U145A | 0.245
A52C G94A | -0.384
A52C G58U G65U C69A G80C C103A C108G | ≤ -4.2
C51A C118G | -3.24
C51U C54U C76A G86A | -2.96
C51U A60U G84A A98G A121C G143U A147C | ≤ -4.2
C51U G94A C118U | -1.44
G50U G126A G141C | -4.02
A52C U55G | -3.84
A52G A73G | -0.266
A52G A73G C85U | -0.163
A52C C93G | -3.65
C51G A106G U144A | -3.29
C51U G62A U139G | -0.262
C51A A137C | ≤ -4.2
C51A A52C U146G | -2.06

Variant | polymerase ribozyme fitness (log ratio)
A52C A60G | -0.764
G50U G83U C85G | -4.13
A52C C99U | -1.81
A52C C99G | -4.11
C51U U55A U56A G58C U82A A150C | ≤ -4.2
A52C G88A U146G A150C | ≤ -4.2
C51U G88U U90C G94A C95U A147G | ≤ -4.2
C51U U55A C76A U90C C96G G100A U101G | ≤ -4.2
A52C G84U C96U U144A | ≤ -4.2
G50U U102A A142U | -2.57
C51U C85U G140C | ≤ -4.2
A52G A64U G81A G86C G92A A122C G143C | ≤ -4.2
A52C U53A G88C C95U U145C | ≤ -4.2
C51U C95G A110U G141U | ≤ -4.2
A52C A60C C79U C93A G152U | ≤ -4.2
C51U C131G | -3.49
A52C G68A G94C C99U C108G A120C G143C | ≤ -4.2
G50U G94A A113G A147C | -3.89
C51U C96U G124A | -0.0401
C51G U56A | -2.67
C51A G140C | -4.19
C51A G140U | -4.11
C51A G68U U82C C116U U146G | ≤ -4.2
C51G A91U | ≤ -4.2

Variant | polymerase ribozyme fitness (log ratio)
C51G A91G | ≤ -4.2
C51U U53G A119U G143C | ≤ -4.2
A52C G62C A120G G140U | -4.1
A52C A91U C93A G133C | ≤ -4.2
C51U U56A C57A C105G A122G | -2.19
C51U G84A | -0.489
C51U G84U | -1.52
C51U G83C A106G A122U A142U | ≤ -4.2
G50U U56A G94U A106G C116G C123U | -0.9
A52C C85U U102C | -2.57
C51U G92U C99A A106G C123G C129U | -2.74
C51U U56A C87A C95U C118A U139C | ≤ -4.2
C51U C95G | -1.68
C51U C95U | -1.69
G50U G94A U102C C103U | -3.63
A52C G59A G68A C79U G92U U104G | ≤ -4.2
C51A C96A A115G A137U | ≤ -4.2
C51U G81C C85U G117C U134A A137G | -3.98
C51A U82G C96U G143C | ≤ -4.2
A52C C54U G68A C93U C103A A106G A110U | ≤ -4.2
A52C G84U | -2.64
A52C G84A | -1.32
C51A C75U C95U A106C G128U | ≤ -4.2
A52C G81A G86U | -2.1

Variant | polymerase ribozyme fitness (log ratio)
A52G A60G C75U G88U G92A C95U C116U | ≤ -4.2
C51U G84A C96A C149U | -2.56
A52C C96U U130A U144G A147C | -3.6
C51A C99G | -4.07
A52C U55A G59U | 0.0736
A52C C69A C96A | -3.18
C51U C85U C96G A119C G141A | -2.65
C51G U56A A89U A119C C129U | ≤ -4.2
C51U C116U A121C G152U | -3.78
C51U U53A C93A G124U | -3.59
A52C A91U U148A | ≤ -4.2
G50U G94A | -0.00242
C51U U82A C95U | -1.29
A52G A106G | -0.771
C51U U56A A73U U78G A91U G141C G152A | -3.97
A52C C72U C96A C123U | -2.72
A52C A110G A150G | -3.86
A52C C96A | -1.55
A52C C96G | -1.36
C51U G67A C72A C123U C132A U134C | ≤ -4.2
G50U U56A G83A | -0.268
C51G G84U | -3.11
A52C G67C A89C A106G A107G | ≤ -4.2
C51A C57U G59U G100C A119U A122U U145G | -4.13

Variant | polymerase ribozyme fitness (log ratio)
C51U A73U C118G A119C | -1.81
C51A C57A C87U A98G U146G | -3.12
C51U G92U | -1.86
C51U C69U C96G | -3.06
C51G G83U A110C G140C | ≤ -4.2
C51U G58A | -1.32
A52C A73G | -1.89
A52C A73U | -3.14
A52C C75U A97U U109G C114A | -3.53
C51U U56A A73U G86A | -4.02
G50U G86C A120C | -3.03
C51G C87A C93G C105A A113U | ≤ -4.2
C51U A89G G141U | -0.598
C51U C87G C93G C105G A106C A113G | ≤ -4.2
A52G A73G C99U G117A | -1.7
C51A C87A G133U C149G | ≤ -4.2
A52C C57U G133U | ≤ -4.2
C51A G74A | ≤ -4.2
C51U A91G G100A A110U A121U | ≤ -4.2
A52C G58U G59A C85A | -2.15
C51U G141C | -0.423
C51G G62C C85A G143A | -1.5
C51U C93U | -2.53
